This is an account of results in article PMC3047612 (The Journal of General Physiology, 2011).

For this assay, the target named is H6 hERG 666–872 Flag (human, UniProt Q12809 666-872). Nature of the assay: pull-down.
Chain of H6 hERG 666–872 Flag (Q12809 666-872): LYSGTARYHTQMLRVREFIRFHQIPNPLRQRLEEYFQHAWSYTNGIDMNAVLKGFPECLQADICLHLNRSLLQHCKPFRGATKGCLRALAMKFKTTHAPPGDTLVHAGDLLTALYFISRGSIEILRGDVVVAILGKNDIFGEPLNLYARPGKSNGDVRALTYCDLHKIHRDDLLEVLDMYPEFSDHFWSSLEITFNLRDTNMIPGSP

B1: GST N1–135 (domain or fragment, human, UniProt Q12809 1-135, looked up)
chain: MPVRRGHVAPQNTFLDTIIRKFEGQSRKFIIANARVENCAVIYCNDGFCELCGYSRAEVMQRPCTCDFLHGPRTQRRAAAQIAQALLGAEERKVEIAFYRKDGSCFLCLVDVVPVKNEDGAVIMFILNFEVVMEK
For the molecule B1, the binding result is on record as “binds”.
